# Data taken from patent US11891642B2, “Biocatalytic techniques” (HYPHA DISCOVERY LIMITED, priority 2018, dated 2024).
# B1: SriC12-SriF05: cytochrome P450 SriC12 (SEQ ID NO: 29) co-expressed with ferredoxin SriF05 (SEQ ID NO: 30), native coding sequence (protein, listed as Streptomyces rimosus)
# chain 1: MTEALPFPQDRTCPYDPPAGYQPLRDSRPLSRVTLYDGRPAWVVTGHAESRALLTDPRLSADRQNPAFPSPAPRFETLRKVRTPLLGVDDPEHNTQRRMLIPSFSVKRAAALRPRIQEIVDRLLDAMEQQGPPAELVSAFALPVPSMVICALLGVPYADHELFEGLSRTLLQSADPQEVTEARDKLEDYFTALVERKRKEPGDGLLDELIAERLDSGELGHRELVRMAMLLLVAGHETTSNMLSLGTFTLLEHPEQFAALRADPSLLPAAVEELLRFLSIADGMVRVATEDIEIGGVTIRADDGVIFSTSVVNRDGAAYASPDTLDWERSARHHVAFGFGVHQCLGQNLARAEMEIAFGALFARFPGLRLAVPAAEIPVKPAHALQGLVELPVTW
# chain 2: MKIDIDTSVCIGSGQCVLTAPGVFTQDDDGFSTLLPGREDGTGDPLVREAARACPVQAIAVTDD
# B2: SriC14-SriF06: cytochrome P450 SriC14 (SEQ ID NO: 34) with ferredoxin SriF06 (SEQ ID NO: 35) (protein, listed as Streptomyces rimosus)
# chain 1: MTETSTAFPAQDAPAFPSDRTCPYGLPETYARLRDSEDALRPVTLFDGRTAWVVTKHETARTLLADPRLSSNRTHPDFPLTSPRLAGLRDRRPAFISMDPPEHGPRRRMTISEFTVKRIKGMRPDIERIVHGFLDEMLAAGPPADLVSRFALPVPSMVICQLLGVPYADHDFFQDASRRLVQSTSAEEATGARDDLERYLDGLITTLESEPGPGLLGALVTRQLADGAIDRDELISNALLLLVAGHETTASMTSLSVITLLEHPEQHAALRDDPSLIPGAVEELLRYLAIADVAGARVATADIEVDGQVIRAGEGVIVVHSIANRDAGVFENPDTFDIHRSARHHLSFGYGVHQCLGQNLARLELEIILSALFERIPTLRLATPVERLTLRPGSTIQGVNELPVTW
# chain 2: MHVTADRDVCVGAGMCALTAPGVFDQDDDGLVTVLTSDIGENDRDAVREAGMLCPSGALRVTE
# B3: SriC22: cytochrome P450 from Streptomyces rimosus NRRL-2234, SEQ ID NO: 51 (protein, listed as Streptomyces rimosus)
# chain: MTTSPTESTTATPPDSTTASAPGTPPDALPSYVGLHPGEPNVMEPELLNDPYAGYGKLREQGALVRGRFLDDSPVWLVTRFDVVREVMRDPRFINNPSRLPGRTEKDPRAQLIELFGIPDHMARYLVDTILTSDPPDHTRLRRLVSRAFTARRIQDLRPRVEAITDELLDRLPAHAQDGVVDLVEHFAYPLPITVICELVGIDEEDRPLWRQFGADLTSLEPKRIGATVPAMVEHIHKVIGERQSALRDDLLSALIRARDDDGGRLSETEMVTMVLTLVLAGHETTAHLISNGTLALLTHPDQRRLLTEDPGLLPRAVHELMRWCGPIQATQLRYASEDVEVAGTQVHKGDALMFSLVAANHDPRHYTEPEKLDLTRQPAGRAEDHVGFGHGMHYCLGASLARQEGEVAFGKLLARYPEVALALPHEQLEEQERIRQPGSWRLRRLPLRLRPED
# B4: SriC51-SriF08: cytochrome P450 SriC51 (SEQ ID NO: 109) with ferredoxin SriF08 (SEQ ID NO: 110) (protein, listed as Streptomyces rimosus)
# chain 1: MTTADTMPLAYPFNDADGLALSETYEQVRDRPGLLRVQMAYGEPAWLATRYADARLVLGDRRFSRAEGLERDEPRQSEGQRDSGILSMDPPDHTRLRTLVAKAFTVHQVEKLRPWVRELTHGLIDELEAAGPPVDLVDRYALPIPVAVICRMLGVPEEDRPKFRTWSDAALSTSSLTAEEFEANREELRAYMAKLIEDHRTTPRDDLMTRLIEARDVGDRLSELELIDLCVGILVAGHETTATQIPNFVLSLLDHPGELERLRAEPALIKSAVEELLRFVPLGSGAGFPRYATEDIEVGGTLVRAGEPVLVAVGAANRDALRFDEPGTLNITRDGNQHLGFGHGVHHCLGAPLARLELQEALIALITRFPKLHVAGDVVWKDQMLVRGPRVMPVGW
# chain 2: MTWKAAIDGQQCMASGMCAGIAPDLFVLDGPHARPLQEEIPEDEAALDAADSCPAMAILIRDGEKVVGPRP
# B5: SriC01: cytochrome P450 from Streptomyces rimosus NRRL-2234, amino acid sequence SEQ ID NO: 2 (protein, listed as Streptomyces rimosus)
# chain: MTETIPFEAVDGAVRPSEEVPVVDLSATGLSDTPLQQAMGLAREHGAVYRRRLHGHEALLVSSLELVTELADENRFAKGVSVALENVREFAGDGLFTAYNDEPNWAKAHDILMPAFALGSMRTYHPAMLKVARRVIGSWDRRAADGTPVDVPDDMTRMTLDTIGLAGFGFDFESFSRATMHPFVEAMVRCLEWSMKRLGREPDGDYTEEDAAFRADADYLASVVDEVIASRTGADGTPGEEAGDDLLGLMLGATHPADGTTLDLANIRNQVITFLIAGHETTSGALSFALYHLLKDPAALRLAQREADELWGDQTDPDPSFEDIGRLPYTRQVLNEALRLWPTAAAFSRQARTDTLLGGRIPLKAGQLVTVLTPMLHRDPAWGDNPELFDPTRFAPEAEAARSPHAYKPFGTGERACIGRQFALHEATMLLAMLVHRYRLIDHSDYRLSIKETLTLKPDGFTLTLARRTPADRAGLRAALAVLPGGAAEPDGTESGTDDGLPTRVRQDTALLLLHGTNYGTCRDFAERIADEATGLGFTTEVAPLDAATGALPTDRPVVIVTASYNGQPTDDAARFVEWLSGDEARAEGVPYAVLGVGDRNWAATYQRVPTLLDERLAALGAERLLPRGEADASGDLNGAVKAFTATLRTELLVRYGDPATIGASTPADATDASYTVREVTGGPLDALAARHGLQPMTVTEAYDLTAPGYPRVKRFLRLTLPEGVTYRTADHLAVLPANGAAAVERAAQVLGVSLEAVLDIRAGAGRGGRDTLPVDRPLTVRQLLTHHLELNARPTAAQRAVLADHNPCPPERAALQAIPDDDPRTTLDLIEEHPALRGVLPWPVLLDLLPALRIRHYSLSSSPAADPRHADLMVSLLPGGTGSGHLHTLRPGDTVLARVQPCREAFRLDPADPTPVILVAAGTGLAPFRGAVADRLAATQLAPALLYFGCDALEADYLHAEELQAAEAAGAVSLRPAFSARPVDGCRYVQHRIAAEAEEVGALLDAGARVYVCGDGNRMAPGVRAAFRELYAARTGATQEEAEVWLRELTAAGRYVEDVYVTG
# B6: SriC20: cytochrome P450 from Streptomyces rimosus NRRL-2234, SEQ ID NO: 47 (protein, listed as Streptomyces rimosus)
# chain: MPEIIDLGAYGPDFVADPHPYYAKLRAQGPVHRVRAPEMEPEFPQAWLIVGYDEARAVLADNRFAKDWSRANGSLADSEVLAEWQLMNMLDADPPQHTRLRKLVAREFTTRRVEALRPRVQQITDELLDAMLAAPDGRADLVEALAFPLPMTVICELLGVPDIERDTFRAWSNELVSPTDNEATMTAAREMAAYLDGLIESKRSSPGEDLLSALVRTSDEDGDQLSRQELLGMAFLLLVAGHETTVNLISNGVRALLQHPAQLAALRADPSLLDNAVEEMLRYDGPVETATWRFTAEPVGIGGVEIPAGEIVLVGLAGADRDPERFEAPDTFDITRETRGHVAFGHGIHFCLGAPLARVEGRIAVRTLLDRCPDLALDTAPEALTWRAGMTIRGPQHLPVRWR
# Test: Concentration of cytochrome P450 in cell-free extract by carbon monoxide difference spectrum (Omura and Sato)
# Settings: effect of codon optimisation, expressed in E. coli BL21 (DE3), value ± SD
# Experimental: Measurement is performed according to the method of Omura and Sato et al. (J Biol Chem, 239. 1964, 2370). That is to say, cytochrome P450 is analyzed quantitatively using the following formula, based on the difference in the absorbance of the reduced CO versus the reduced difference spectrum at 450 nm and 490 nm.
# Measurement of the concentration of cytochrome P450 were performed according to the method of Omura and Sato et al. (J Biol Chem, 239. 1964, 2370). Cytochrome P450 concentrations of cell-free extracts of induced E. coli BL21 (DE3) Rosetta2 & Tuner cells harbouring either pHD05-SriC01, pHD02-SriC12-SriF05, pHD05-SriC14-SriF06, pHD05-SriC20, pHD05-SriC22 or pHD05-SriC51-SriF08 are shown in Table 2. Carbon monoxide difference spectra for P450SriC01, P450SriC12, P450SriC14, P450SriC20, P450SriC22 and P450SriC51 are shown in FIGS. 9, 10, 11, 19, 20 & 21 respectively.
# The native and codon optimised P450sriC12 and ferredoxinsriF05 in pHD02-SriC12-SriF05 and pHD02-SriC12CO-SriF05CO respectively were introduced into E. coli BL21 (DE3). The recombinant strains were cultured and proteins were induced as in Example 2. The cell-free extract material was obtained as in Example 3 and carbon monoxide difference spectrums were measure to calculate the concentration of cytochrome P450.
# The resulting plasmids containing the new mutants genes were transformed into recombinant E. coli strains for expression as described in Example 1, cultured and induced as described in Example 2, extracted and processed as described in Example 3 and tested for biocatalytic activity as described in Example 5 above. The carbon monoxide difference spectrum result of R63W mutant of codon optimised P450SriC12 is shown in FIG. 14 and the cytochrome P450 concentration of mutant P450SriC12 are shown in Table 5.
row,Molecule,P450 concentration
1,B1,3.6 ± 0.3 µM

# Same assay, conditions: native enzymes expressed in E. coli BL21 (DE3) Rosetta2 & Tuner cells, cell-free extract
row,Molecule,P450 concentration
1,B2,15.4 µM
2,B1,3.6 µM
3,B3,18.4 µM
4,B4,25.0 µM
5,B5,33.5 µM
6,B6,18.8 µM
